According to patent US7228238B2, “Algorithmic design of peptides for binding and/or modulation of the functions of receptors and/or other proteins” (Cielo Institute, Inc., priority 2000, dated 2007):

Tests used:
[1] = target: T1, human long isoform D2DA receptor (Homo sapiens, UniProt P14416); experiment: external acidification rate (EAR) by microphysiometry, response to dopamine, D2DA receptor-transfected CHO cell system; settings: peptide 1 μM; for MODULATORY EFFECT CHO: significance class of effect on EAR response to dopamine ≈1 μM; for MODULATORY EFFECT CHO / DIRECT EFFECT CHO: D2DA-transfected CHO cells; for DIRECT EFFECT CHO: significance class of effect on EAR
T1 sequence (P14416 whole entry, canonical isoform): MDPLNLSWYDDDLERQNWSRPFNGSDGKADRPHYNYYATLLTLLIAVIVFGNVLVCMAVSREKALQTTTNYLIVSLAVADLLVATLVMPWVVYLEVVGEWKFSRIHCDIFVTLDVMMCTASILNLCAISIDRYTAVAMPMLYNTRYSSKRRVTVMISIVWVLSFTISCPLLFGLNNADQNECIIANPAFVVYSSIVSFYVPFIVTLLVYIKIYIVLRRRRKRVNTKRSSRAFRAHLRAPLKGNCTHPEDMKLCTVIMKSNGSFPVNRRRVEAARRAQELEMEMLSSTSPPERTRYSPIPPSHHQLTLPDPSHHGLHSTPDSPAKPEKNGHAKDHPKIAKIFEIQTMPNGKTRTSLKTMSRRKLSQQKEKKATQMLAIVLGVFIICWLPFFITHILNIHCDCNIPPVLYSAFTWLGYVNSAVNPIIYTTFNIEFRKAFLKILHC
Method: (§2) Both cell systems were stably transfected with human long isoform D2DA receptor cDNA, which had been isolated from a human striatal cDNA library, sequenced and subcloned into the expression vector pRC/RSV (Invitrogen). […] Both systems were grown to confluence in DMEM containing 10% FBS. The cells were serum-starved 18–24 hours prior to use, and then assayed for EAR using a microphysiometer (Cytosensor; Molecular Devices, Sunnyvale, Calif.) in low buffering DMEM with 0.1% culture grade BSA.
(§3) The determination of EAR by microphysiometry involves a proton-sensitive silicon semiconductor photocurrent-driven sensor which measures changes in EAR resulting from effector-evoked alterations in cellular glycolytic and respiratory energy metabolism and/or alterations in sodium-hydrogen exchanges across cellular membranes. Protonic H^+, generated by such energy metabolism or exchanges, neutralizes the charge on the surface of the semiconductor, reducing the photocurrent produced at a rate linearly related to H^+production.
(§4) The microphysiometer monitors pH in flow-through chambers containing the receptor-transfected cells. Generally, if the cells lines used are adherent cell lines, the cells are seeded into “capsule cups”. If the cell lines are non-adherent cell lines, then the cells are immobilized in a fibrin matrix. For all microphysiometer runs, modified low buffering DMEM containing 0.1% BSA is pumped across the cells at a rate of approximately 100 μL/min, during which time the pH of the microenvironment surrounding the sensor surface is maintained at a relatively constant value. The measurement of the acid output rate of the cells, termed the acidification rate, is made when the fluid flow is periodically halted to allow buildup of acidic metabolites in the chamber, resulting in an alteration in the pH of the fluid. The pH is measured in millivolts, and converted to milli-pH units. The changes in pH are expressed as changes in milli-pH units per minute following the linear, time-dependent buildup of H^+during intermittent periods of pump arrest followed by washout. […] Ligand induced, receptor-mediated increases in cell metabolic and Na^+—H^+membrane regulatory activity is seen as an increase in the acidification rate.
(§5) Small Kolmogorov-Smirnov distances supported the assumption of normality in all of the data sets, so within chamber-paired, one-tailed t-tests with a significance criterion of ρ=0.05 were used.

[2] = target: T1, human long isoform D2DA receptor; experiment: external acidification rate (EAR) by microphysiometry, response to dopamine, D2DA receptor-transfected mouse LtK cell system; settings: for MODULATORY EFFECT LtK: significance class of effect on EAR response to dopamine ≈1 μM; for MODULATORY EFFECT LtK / DIRECT EFFECT LtK / influence on dopamine-induced increment in total milli-pH units (EAR response to dopamine) / ρ of one-tailed t-test paired within chamber, peptide influence on EAR response to dopamine: peptide 1 μM; for MODULATORY EFFECT LtK / DIRECT EFFECT LtK: D2DA-transfected LtK cells; for DIRECT EFFECT LtK: significance class of effect on EAR; for influence on dopamine-induced increment in total milli-pH units (EAR response to dopamine) / ρ of one-tailed t-test paired within chamber, peptide influence on EAR response to dopamine: LtK system, dopamine ≈1 μM
Method: as §2, §3, §4, §5

[3] = target: T2, human muscarinic M1 receptor (Homo sapiens, UniProt P11229); experiment: EAR test system, response to carbachol, M1 receptor-transfected CHO-K1 cells; assay type: cell-based; settings: for MODULATORY EFFECT: significance class of effect on EAR due to carbachol
T2 construct: expressed in transfected cells; host or cells: CHO-K1 cells; expression vector pcDNA3; calcium phosphate method; geneticin selection
T2 sequence (P11229 1-460): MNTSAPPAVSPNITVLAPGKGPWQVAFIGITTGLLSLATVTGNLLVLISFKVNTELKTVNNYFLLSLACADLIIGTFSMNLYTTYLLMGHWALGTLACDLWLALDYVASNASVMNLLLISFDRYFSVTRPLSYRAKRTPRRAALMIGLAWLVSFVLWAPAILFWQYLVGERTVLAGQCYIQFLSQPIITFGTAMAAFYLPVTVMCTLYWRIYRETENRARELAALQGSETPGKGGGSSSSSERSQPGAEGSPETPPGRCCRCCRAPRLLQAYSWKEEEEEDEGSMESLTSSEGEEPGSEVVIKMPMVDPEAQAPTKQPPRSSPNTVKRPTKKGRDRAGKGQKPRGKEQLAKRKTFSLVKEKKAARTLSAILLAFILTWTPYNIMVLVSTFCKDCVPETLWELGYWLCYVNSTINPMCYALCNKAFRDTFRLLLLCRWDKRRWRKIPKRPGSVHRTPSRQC
Method: (§1) Peptides derived from receptor protein systems other than the D2DA receptor were also tested for their effects on their respective receptors. For the human muscarinic M1 receptor, CHO cells were transfected with the muscarinic M1 receptor cDNA derived from a human cDNA library essentially as described by Buckley et al. (Mol. Pharmacol. 1989 35:469–476). Briefly, the coding region of the M1 receptor was obtained from a human cDNA library and cloned into the expression vector pcDNA3 (Invitrogen, San Diego, Calif.). CHO-K1 cells were transformed with the construct, using the calcium phosphate method. Stably expressing transformants were obtained in the presence of 250 μg/ml geneticin. Transformed cell lines expressing the human NGF receptor also were obtained. The effects of the peptides derived by the methods of the present invention on the activities of the corresponding receptors in the transformed cell lines were evaluated in the same manner as described above for the D2DA-targeted algorithmically derived peptides, using the EAR test system.

[4] = system: human NGF receptor; experiment: EAR test system, transformed cell line expressing the NGF receptor, response to NGF; assay type: cell-based; settings: for MODULATORY EFFECT: significance class of change in EAR response to NGF; for MODULATORY EFFECT / DIRECT EFFECT: NGF receptor cell line; for DIRECT EFFECT: significance class of change in EAR; for effect on EAR response to NGF: NGF receptor inhibition assay, PC-12 cells
Method: as §1
The hydrophobic wavelength of a peptide containing L-amino acids is the same as a peptide containing D-amino acids in which the sequence is inverted. Such “retro-inverso” peptides have been previously described (Chorev, M. and Goodman, M. (1995) Trends Biotechnol. 13:438–445), but their use as mode-matched binding peptides has never before been contemplated. A retro-inverso peptide containing D-amino acids and having the sequence […] was synthesized (SEQ ID NO:97). This sequence of this peptide is inverted from that of peptide of SEQ ID NO:27, used in the NGF receptor inhibition assay. […] The peptide of SEQ ID NO:97 was tested in the same assay as the L-amino acid, forward sequence peptide of SEQ ID NO: 27.

[5] = CHO cell system, dopamine ≈1 μM

## 1 (SHQRWEYKGVNCIVY) [compound 1]
[1]
  MODULATORY EFFECT CHO: *** (***ρ ≦ 0.001)
  DIRECT EFFECT CHO: *** (***ρ ≦ 0.001)
[2]
  MODULATORY EFFECT LtK: *** (***ρ ≦ 0.001)
  DIRECT EFFECT LtK: *** (***ρ ≦ 0.001)

## 3 (ERNRKPYRPKNKYLL) [compound 3]
[2]
  MODULATORY EFFECT LtK: *** (***ρ ≦ 0.001)

## 4 (ERNKLNYKNKNKYIL) [compound 4]
[2]
  MODULATORY EFFECT LtK: *** (***ρ ≦ 0.001)

## 5 (SHTAYHWMSCGKIVI) [compound 5]
[1]
  MODULATORY EFFECT CHO: *** (***ρ ≦ 0.001)
[2]
  MODULATORY EFFECT LtK: * (*0.01 < ρ ≦ 0.05)

## 7 (SHQAWRYKNVNCYVI) [compound 7]
[2]
  MODULATORY EFFECT LtK: *** (***ρ ≦ 0.001)

## 8 (GETAFRYVNCNVYVYI) [compound 8]
[1]
  DIRECT EFFECT CHO: ** (**0.001 < ρ ≦ 0.01)
[2]
  DIRECT EFFECT LtK: *** (***ρ ≦ 0.001)

## 13 (FSFQCKSINYEALGY) [compound 13]
[3]; significance class of effect on EAR
  DIRECT EFFECT: ** (** 0.001 < ρ ≦ 0.01)
[3]
  MODULATORY EFFECT: ** (** 0.001 < ρ ≦ 0.01)

## 14 (FSFGVKSWQYHALGY) [compound 14]
[3]
  MODULATORY EFFECT: * (* 0.01 < ρ ≦ 0.05)

## 15 (ITFTVKGLTLAAFTY) [compound 15]
[3]
  MODULATORY EFFECT: *** (*** ρ ≦ 0.001)

## 16 (ISFNKCTWSFERYSL) [compound 16]
[3]
  MODULATORY EFFECT: * (* 0.01 < ρ ≦ 0.05)

## 17 (FNLSVKQWNYRAYNL) [compound 17]
[3]
  MODULATORY EFFECT: ** (** 0.001 < ρ ≦ 0.01)

## 23 (DLCRSARSDIEVTEY) [compound 23]
[4]
  MODULATORY EFFECT: *** (*** ρ ≦ 0.001)
  DIRECT EFFECT: ** (** 0.001 < ρ ≦ 0.01)

## 24 (RFVASAATEIEVNRL) [compound 24]
[4]
  MODULATORY EFFECT: ** (** 0.001 < ρ ≦ 0.01)

## 25 (HYCASADPRIHKNAL) [compound 25]
[4]
  MODULATORY EFFECT: *** (*** ρ ≦ 0.001)

## 26 (DFVDGAAGRLHKGEY) [compound 26]
[4]
  MODULATORY EFFECT: ** (** 0.001 < ρ ≦ 0.01)

## 27 (DIKATEATDIEKGHL) [compound 27]
[4]
  MODULATORY EFFECT: *** (*** ρ ≦ 0.001)

## 28 (RFVDNDATDIEKGRI) [compound 28]
[4]
  MODULATORY EFFECT: *** (*** ρ ≦ 0.001)
  DIRECT EFFECT: * (* 0.01 < ρ ≦ 0.05)

## 29 (RFVRGDRNHFDCGEL) [compound 29]
[4]
  MODULATORY EFFECT: *** (*** ρ ≦ 0.001)
  DIRECT EFFECT: * (* 0.01 < ρ ≦ 0.05)

## 30 (HFVRNERTHFDVSAL) [compound 30]
[4]
  MODULATORY EFFECT: * (* 0.01 < ρ ≦ 0.05)
  DIRECT EFFECT: * (* 0.01 < ρ ≦ 0.05)

## ERNRKPLRPKNKYLI [E . . . PL]
[2]
  influence on dopamine-induced increment in total milli-pH units (EAR response to dopamine): statistically significant activation

## ERNRKPYRPKNKYLL [E . . . PY]
[2]
  influence on dopamine-induced increment in total milli-pH units (EAR response to dopamine): statistically significant activation

## H-DIKATEATDIEKGHL-OH [SEQ ID NO:27]
[4]
  effect on EAR response to NGF: significantly down-regulated

## H-SHQRWEYKGVNCIVY-OH [SEQ ID NO:1]
[1]; [5]
  influence on dopamine-induced increment in total milli-pH units (EAR response to dopamine): significantly potentiated
  ρ of one-tailed t-test paired within chamber, peptide influence on EAR response to dopamine: < 0.0001
[2]; LtK cells, dopamine 10^−8.5M to 10^−5.5M, peptide 10 nM to 3 μM
  EAR dose response curves: asymptotic sigmoidal kinetics, suggestive of positive cooperativity
[2]
  influence on dopamine-induced increment in total milli-pH units (EAR response to dopamine): significantly potentiated
  ρ of one-tailed t-test paired within chamber, peptide influence on EAR response to dopamine: 0.0009

## H-THQAFHYCNKQCLVI-OH (cysteine pairing not given here) [SEQ ID NO:2]
[1]; [5]
  influence on dopamine-induced increment in total milli-pH units (EAR response to dopamine): did not significantly potentiate
[2]
  influence on dopamine-induced increment in total milli-pH units (EAR response to dopamine): did not significantly potentiate
  ρ of one-tailed t-test paired within chamber, peptide influence on EAR response to dopamine: > 0.05

## LHGKEIDTAETAKID [SEQ ID NO:97]
[4]
  effect on EAR response to NGF: also down-regulated the EAR response of PC-12 cells to NGF, to an extent comparable
